Assay results reported in paper PMC7251641.

Biological target: Htz1^Flag (S. cerevisiae histone H2A.Z with a Flag epitope tag) (S. cerevisiae) (UniProt Q12692)
Test: co-IP

Sequence of histone H2A (S. cerevisiae, endogenous) (P04911 whole entry): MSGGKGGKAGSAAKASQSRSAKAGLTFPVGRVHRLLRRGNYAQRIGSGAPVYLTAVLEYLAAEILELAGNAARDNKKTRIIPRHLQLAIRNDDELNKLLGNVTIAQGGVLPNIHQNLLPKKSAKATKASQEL
Sequence of Htz1^Flag (S. cerevisiae histone H2A.Z with a Flag epitope tag) (S. cerevisiae) (Q12692 whole entry): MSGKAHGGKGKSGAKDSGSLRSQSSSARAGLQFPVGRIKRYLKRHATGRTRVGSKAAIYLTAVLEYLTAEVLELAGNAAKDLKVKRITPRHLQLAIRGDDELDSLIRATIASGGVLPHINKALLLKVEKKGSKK

“histone H2A (S. cerevisiae, endogenous) (from UniProt P04911 1-132) (natural protein)” gave an estimated molar ratio of H2A and Htz1^Flag in the Flag eluate of 0.49.
